Source: patent US20160333075A1 (MAB EXPLORATIONS SDN BHD, published 2016)
Where a chain is given by its changes, count along the chain named.

B1: hVL1 + hVH1 E19 (antibody, V domains shown)
VH: DVQLQESGPGLVKPSQTLSLTCTVSGYSITSGFYLNWIRQHPCKGLEWIGYINYGGSINYNPSLKSRVTISRDTSKNQFSLKLSSVTAADTAVYYCATMPNSWYFDVWGRGTLVTVSS
VL: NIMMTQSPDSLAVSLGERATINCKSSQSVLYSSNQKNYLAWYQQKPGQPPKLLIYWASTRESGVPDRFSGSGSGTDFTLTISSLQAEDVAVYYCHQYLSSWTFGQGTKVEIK
B2: hVL1 + hVH2 E19 (antibody, V domains shown)
VH: B1 VH with C43G, G45K, R110T
VL: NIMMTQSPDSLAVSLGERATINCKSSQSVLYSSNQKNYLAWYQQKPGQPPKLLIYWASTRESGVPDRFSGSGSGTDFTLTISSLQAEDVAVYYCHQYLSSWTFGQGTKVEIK
B3: hVL1 + hVH3 E19 (antibody, V domains shown)
VH: B1 VH with D1E, Q5V, I38V, C43G, G45K, T69S, S84T, R110T
VL: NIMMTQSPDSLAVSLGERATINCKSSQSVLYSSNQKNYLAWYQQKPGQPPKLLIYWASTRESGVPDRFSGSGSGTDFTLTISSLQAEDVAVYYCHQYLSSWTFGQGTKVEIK
B4: Recombinant chimeric E20 VL + VH (antibody, V domains shown)
VH: EVQLVESGGGLVKPGGSLKLSCAASGFTFNIYAMSWVRQTPEKRLEWVATISDGGSYTYYPDNVKGRFTISRDNAKNNLYLQMSHLKSEDTAMYYCVRDRGNYYSRAFPYAYWGQGTLVTVSA
VL: SIVMTQTPKFLPVSAGDRVTMTCKASQSVGNNVAWYQQKSGQSPKLLIYYASNRYTGVPDRFTGSGSGTDFTFTISSVQVEDLAVYFCQQHYSSPPTFGAGTKLELK
B5: Recombinant chimeric E18 VL + VH (antibody, V domains shown)
VH: QIQLVQSGPELKKPGETVKISCKASGYTFTRYGMSWVKQAPGKGLKWMGWINTYSGVPTYADDFKGRFAFSLETSASTAYLQINNLKNEDTATYFCARRGYSNYYPMDFWGQGTSVTVSS
VL: DIKMTQSPSSMYASLGERVTITCKASQDIKSYLSWYQQKPWKSPKTLIYYAKNLADGVPSRFSGSGFGQDYSLTISSLESDDTATYYCLQHGESPYTFGSGTKLEIKR

Legend:
Test in all cases: cell-based or functional assay
[1] = target: enterovirus 71 (EV71) virions (enterovirus 71)
[2] = target: enterovirus 71 (EV71) virions (enterovirus 71); remark: listed apart in the source
[3] = target: enterovirus 71 (EV71) virions (enterovirus 71); remark: listed apart in the source

| Binder | Average IC50 [1] [µg/mL] | IC50 (#1) [1] [µg/mL] | IC50 (#2) [1] [µg/mL] | Inhibitory concentration 50 (IC50), Vero ATCC [2] [µg/mL] | end point PRNT50, Vero ATCC [2] [ng/mL] | end point PRNT50, Vero NIBSC [2] [ng/mL] | IC50 in ATCC cells relative to the parental antibody [3] [fold] | IC50 in NIBSC cells relative to the parental mouse antibody [3] [fold] | Inhibitory concentration 50 (IC50), Vero NIBSC [2] [µg/mL] |
| --- | --- | --- | --- | --- | --- | --- | --- | --- | --- |
| B1 | 0.0892 | 0.0565 | 0.122 | – | – | – | – | – | – |
| B2 | 0.119 | 0.118 | 0.121 | – | – | – | – | – | – |
| B3 | 0.0896 | 0.0965 | 0.0826 | – | – | – | – | – | – |
| B4 | – | – | – | 3.18 | 5000 | > 10000 | – | – | – |
| B5 | – | – | – | 0.585 | 625 | 2500 | ~2 | ~5 | 0.966 |
